Results on 1 sequence are retold here after patent US20120003668A1, “HIGH RESOLUTION COMPLEX STRUCTURE AND ALLOSTERIC EFFECTS OF LOW MOLECULAR WEIGHT ACTIVATORS ON THE PROTEIN KINASE PDK1” (UNIVERSITAET DES SAARLANDES, priority 2008, published 2012).

The target of one assay is T1, PDK1 Tyr126 mutant (Homo sapiens, UniProt O15530, Y126A).
T1 sequence (O15530 1-556 Y126A): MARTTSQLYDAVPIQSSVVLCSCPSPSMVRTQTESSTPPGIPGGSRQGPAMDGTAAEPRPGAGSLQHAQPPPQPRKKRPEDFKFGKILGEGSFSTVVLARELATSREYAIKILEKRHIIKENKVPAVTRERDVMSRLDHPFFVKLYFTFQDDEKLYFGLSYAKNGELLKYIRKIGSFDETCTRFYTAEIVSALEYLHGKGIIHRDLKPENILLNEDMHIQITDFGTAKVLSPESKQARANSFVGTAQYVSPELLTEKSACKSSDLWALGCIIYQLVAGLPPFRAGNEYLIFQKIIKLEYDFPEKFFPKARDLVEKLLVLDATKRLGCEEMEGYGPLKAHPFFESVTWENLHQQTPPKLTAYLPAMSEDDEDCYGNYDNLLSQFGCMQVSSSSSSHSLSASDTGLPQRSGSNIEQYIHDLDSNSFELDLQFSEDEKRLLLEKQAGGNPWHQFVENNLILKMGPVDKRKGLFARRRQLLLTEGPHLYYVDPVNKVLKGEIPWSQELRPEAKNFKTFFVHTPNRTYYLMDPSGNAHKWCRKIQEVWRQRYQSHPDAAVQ
The experiment in a line: Biacore binding of PIFtide (data of Komander et al. 2005). As to conditions: applicant's estimate from the published biacore data.

Assay [1] addresses T2, PDK1 50-359 [Y288G;Q292A] (Homo sapiens, UniProt O15530, Q292A/Y288G).
T2 sequence (O15530 with tags, fused parts or gaps Y288G/Q292A): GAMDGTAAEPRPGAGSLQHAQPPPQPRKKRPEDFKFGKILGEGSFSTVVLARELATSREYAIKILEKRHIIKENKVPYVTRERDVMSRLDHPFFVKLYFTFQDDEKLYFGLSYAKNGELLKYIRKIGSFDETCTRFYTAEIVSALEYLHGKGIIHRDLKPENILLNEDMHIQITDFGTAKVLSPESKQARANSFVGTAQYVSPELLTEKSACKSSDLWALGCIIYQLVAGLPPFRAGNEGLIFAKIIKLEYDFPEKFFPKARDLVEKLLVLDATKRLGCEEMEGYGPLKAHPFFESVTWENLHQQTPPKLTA
In words: Amide 1H/2H exchange and mass spectrometry.
Experimental: For local exchange analysis, the labeled proteins were digested with pepsin and the resulting polypeptides analyzed by tandem mass-spectrometry (LC-MS/MS) for their incorporation of deuterium atoms. The graphics represent the number of deuterium atoms incorporated into each polypeptide upon the stated incubation time in deuterated water. […] Over time, amide hydrogen atoms exchanged for deuteriums and the molecular weight of the protein increased. We repeated the ^1H/^2H exchange experiments at four different incubation times: 1, 5, 15 and 45 minutes. […] In the presence of peptide or small compounds, protein and ligand solution were pre-incubated on ice for 50 min before the mixture was diluted into labeling buffer. After the exchange reaction, samples were loaded on a pepsin column for one minute for digestion into peptides and samples quenched at each time point. They were then subjected to liquid chromatography for separation and analyzed by tandem mass-spectrometry (LC-MS/MS) for their incorporation of deuterium atoms. The entire plumbing system was immersed in an ice bath. 61 polypeptides were identified with overlapping regions, covering 80% of PDK1 sequence. As it is not possible to predict the cleavage sites of pepsin in the PDK1 sequence, it was necessary to identify the peptides generated by pepsin digestion for local-exchange analysis.

In assay [2] the target is T3, PDK1[Thr226Trp] (Homo sapiens, UniProt O15530, T226W).
T3 construct: The catalytic domain (CD) of PDK1 50-359 and its mutants Phe224Trp and Thr226Trp were expressed in insect cells and purified; made in house; host or cells: insect cells
T3 sequence (O15530 50-359 T226W): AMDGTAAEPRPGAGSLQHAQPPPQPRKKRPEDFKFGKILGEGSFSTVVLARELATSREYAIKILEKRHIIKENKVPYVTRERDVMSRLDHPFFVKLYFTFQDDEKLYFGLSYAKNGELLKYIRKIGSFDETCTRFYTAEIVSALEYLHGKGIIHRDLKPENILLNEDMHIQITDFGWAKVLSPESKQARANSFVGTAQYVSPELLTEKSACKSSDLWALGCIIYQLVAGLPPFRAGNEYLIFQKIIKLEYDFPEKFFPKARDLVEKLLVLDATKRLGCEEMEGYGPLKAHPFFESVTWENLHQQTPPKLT
In words: PDK1 protein kinase activity test with T308tide substrate, Thr226Trp mutant. Format: biochemical. As to conditions: PDK1 CD 50-359, T308tide as substrate. On the procedure: Protein kinase activity tests: PDK1 activity tests were performed essentially as previously described (Biondi, R. M. et al., Embo. J. 20:4380-4390 (2001); Balendran, A. et al., J. Biol. Chem. 275:20806-20813 (2000); Biondi, R. M. et al., Embo. J. 19:979-988 (2000)) using T308tide as a substrate for PDK1. In brief, PDK1 activity assay was performed at room temperature (22° C.) in a 20 μl mix containing 50 mM Tris pH 7.5, 0.05 mg/ml BSA, 0.1% β-mercaptoethanol, 10 mM MgCl2, 100 μM [γ^32P]ATP (5-50 cpm/pmol), 0.003% Brij, 150 ng PDK1, and T308tide (from 0.1 to 1 mM). When appropriate, the PDK1 activity assay was performed in a 96 well format and 4 μl aliquots spotted with on p81 phosphocellulose papers (Whatmann) using ep motion 5070 (Eppendorf), washed in 0.01% phosphoric acid, dried, and then exposed and analysed using PhosphoImager technology (Typhoon, GE Healthcare). Activity measurements were performed in duplicates with less than 10% difference between pairs. Experiments were repeated at least twice. PDK1 specific activity at 22° C. was approximately 0.25 U/mg when the substrate concentration was 0.1 mM T308tide. […]

For assay [3], the target named is T3, PDK1[Thr226Trp]. In words: Surface plasmon resonance (BiaCore) on biotin-P-HM-S6K chip, Thr226Trp mutant. Format: binding. The following applies: protein pre-incubated with PIFtide. On the procedure: Surface Plasmon resonance (BiaCore) and alpha-screen interaction and displacement assays: Binding of GST-PDK1 to a P-HM-polypeptide derived from S6K1 shown in FIG. 6 was analysed by surface plasmon resonance on a BiaCore 3000 system using a streptavidin-coated Sensor chip (SA) and biotin-P-HM-polypeptide, as previously described (Biondi, R. M. et al., Embo. J. 20:4380-4390 (2001). The interaction of His-PDK1 with biotin-PIFtide and the displacement by compounds shown in FIG. 3 was performed using the alpha-screen Ni-Chelate kit (Perkin Elmer) on an Envision 2104 multilabel system (Perkin Elmer).
BiaCore analysis was performed as described previously (Biondi, R. M. et al., Embo. J. 19:979-988 (2000)). […] Since both mutants were performed on the same construct of PDK1, their mass should be very similar and therefore should also produce 600RU when all biotin-(P)HM-S6K polypeptides on the same chip are bound to the mutant PDK1 proteins. Unfortunately, when mutant PDK1 Phe224Trp and PDK1 Thr226Trp were analysed, the injection of the mutants at concentrations higher than 1.3 μM prompted unspecific effects, therefore making difficult the evaluation. […]
(SPR reads the build-up and loss of mass on a sensor chip optically.)

“REPRILSEEEQEMFRDFDYIADWC [PIFtide, polypeptide derived from the C-terminal 24 amino acids of the PDK1 substrate PRK2]”: the “decreased affinity for PIFtide of the Tyr126 mutant” value in the assay with PDK1 Tyr126 mutant is on record as “over 30 fold”. For the same sequence, the “global exchange protection, 2H less incorporated/PDK1 molecule” value in assay [1] (after 45 minutes, PIFtide 0.625 mM, PS48 500 μM, PS08 250 μM) is given as 20 ^2H. For the same sequence, the “2H less incorporated (protection), peptide 122-134 (α-C-helix)” value in assay [1] (first time point (1 min)) is reported as “five”. For the same sequence, in the assay with PDK1[Thr226Trp] [2], the “activation of PDK1[Thr226Trp]” value is given as “not activated”. The “displacement by PIFtide of PDK1[Thr226Trp] binding to the chip” value with PDK1[Thr226Trp] [3] is listed as “displaced”.
